Results reported in article PMC8449060, “A fully reversible 25-hydroxy steroid kinase involved in oxygen-independent cholesterol side-chain oxidation” (The Journal of Biological Chemistry, 2021).

Experiments:
Assay in all cases: purified protein
[1] = tested on: Nc1ncnc2c1ncn2[C@@H]1O[C@H](COP(=O)(O)OP(=O)(O)O)[C@@H](O)[C@H]1O; conditions: reverse direction, 1 mM 25-phospho-CDO, 10 mM MgCl2, 9% (w/v) HPCD, 50 mM Tris/HCl pH 7.8, 30 °C
[2] = tested on: C[C@H](CCCC(C)(C)O)[C@H]1CC[C@H]2[C@@H]3CCC4=CC(=O)C=C[C@]4(C)[C@H]3CC[C@]12C; conditions: forward direction, 5 mM ATP, 10 mM MgCl2, 9% (w/v) HPCD, 50 mM Tris/HCl pH 7.8, 30 °C
[3] = tested on: C[C@H](CCCC(C)(C)OP(=O)(O)O)[C@H]1CC[C@H]2[C@@H]3CCC4=CC(=O)C=C[C@]4(C)[C@H]3CC[C@]12C; conditions: reverse direction, 5 mM ADP, 10 mM MgCl2, 9% (w/v) HPCD, 50 mM Tris/HCl pH 7.8, 30 °C, apparent, tested only up to 4 mM, no saturation
[4] = tested on: Nc1ncnc2c1ncn2[C@@H]1O[C@H](COP(=O)(O)OP(=O)(O)OP(=O)(O)O)[C@@H](O)[C@H]1O; conditions: forward direction, 1 mM 25-OH-CDO, 10 mM MgCl2, 9% (w/v) HPCD, 50 mM Tris/HCl pH 7.8, 30 °C

25-HSK (25-hydroxy-steroid kinase) (Sterolibacterium denitrificans)
Km [1]: 35 ± 3 µM
Km [2]: 300 ± 10 µM
Km [3]: 8000 ± 700 µM
Km [4]: 800 ± 50 µM
